Tests used:
[1] = molecular target: ErbB2 (human) (Homo sapiens (Human), UniProt P04626 23-652); test: filter; 10 nM RNA, 100 nM protein, DPBS 5 mM MgCl2, 25 C; conditions: label: internal alpha-32P
[2] = molecular target: EGFR ectodomain-Fc (human) (Homo sapiens (Human), UniProt P00533 25-645); test: filter; DPBS, 5 mM MgCl2, 25 C, 30 min; 0.1 nM RNA; conditions: tags: Fc fusion (R&D Systems); label: 5'-32P

B1: E03 (ssRNA)
RNA: GGCGCUCCGACCUUAGUCUCUGUGCUAGUAUAUCGCACGGAUUUAAUCGCCGUAGAAAAGCAUGUCAAAGCCGGAACCGUGUAGCACAGCAGA
modifications: 2'-F pyrimidines
binding result [1]: no binding | Kd [2]: ~2.45 nM

B2: E07 (ssRNA)
RNA: GGCGCUCCGACCUUAGUCUCUGUGCCGCUAUAAUGCACGGAUUUAAUCGCCGUAGAAAAGCAUGUCAAAGCCGGAACCGUGUAGCACAGCAGA
modifications: 2'-F pyrimidines
binding result [1]: no binding

From paper PMC3110755, “Inhibition of Cell Proliferation by an Anti-EGFR Aptamer”
